Consider three molecules from US7326418B2, “Identification of novel factors that block programmed cell death or apoptosis by targeting JNK” (University of Chicago, priority 2001, dated 2008).

In one series the target is T1, JNKK1/MKK4 (Mus musculus, UniProt P47809).
T1 construct: expressed in transfected cells; host or cells: HEK-293; anti-FLAG immunoprecipitate
T1 sequence (P47809 2-397): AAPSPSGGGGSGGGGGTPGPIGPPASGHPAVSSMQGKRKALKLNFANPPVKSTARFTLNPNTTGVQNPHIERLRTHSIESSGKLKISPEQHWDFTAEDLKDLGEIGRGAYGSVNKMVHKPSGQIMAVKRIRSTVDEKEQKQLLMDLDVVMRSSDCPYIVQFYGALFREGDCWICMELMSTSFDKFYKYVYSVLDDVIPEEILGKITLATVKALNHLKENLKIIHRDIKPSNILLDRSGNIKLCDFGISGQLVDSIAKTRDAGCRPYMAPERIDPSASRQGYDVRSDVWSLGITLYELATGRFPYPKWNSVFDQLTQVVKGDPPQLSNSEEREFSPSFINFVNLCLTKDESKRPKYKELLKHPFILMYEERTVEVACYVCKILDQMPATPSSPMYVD
Nature of the series: Kinase assay of immunoprecipitated FLAG-JNKK1/MKK4 with recombinant Gadd45β proteins. The class given is biochemical. The following applies: in vitro, even at high concentrations. The method, then:
(§1) Next, the functional consequences, in vitro, of the physical interactions of Gadd45β with kinases in the JNK pathway were assessed. Murine and human, full-length Gadd45J3 proteins were purified from E. coli as GST-Gadd45β and His6-tagged Gadd45β (His6 disclosed as SEQ ID NO: 46), respectively, according to standard procedures. Prior to employing these proteins in in vitro assays, purity of all recombinant polypeptides was assured by >98%, by performing Coomassie blue staining of SDS polyacrylamide gels. Then, the ability of these proteins, as well as of control GST and His6-EF3 (His6 disclosed as SEQ ID NO: 46)proteins, to inhibit kinases in the JNK pathways was monitored in vitro. FLAG-tagged JNKK2, JNKK1, MKK3, and ASK1 were immunoprecipitated from transiently transfected 293 cells using anti-FLAG antibodies and pre-incubated for 10 minutes with increasing concentrations of recombinant proteins, prior to the addition of specific kinase substrates (i.e. GST-JNK1 with JNKK1 and JNKK2; GST-p38[…] with MKK3; GST-JNNK1 or GST-JNKK2 with ASK1). […] These findings indicate that, upon binding to Gadd45β, JNKK2 is effectively inactivated.
(§2) A question was whether Gadd45β inhibited active MKK7, in vitro. FLAG-MKK7 was immunoprecipitated from TNFα-treated or untreated 293 cells, and kinase assays were performed in the presence of purified His6-Gadd45β (His6 disclosed as SEQ ID NO: 46), GST-Gadd45β, or control proteins (FIG. 28d; see also FIG. 28g). […] Consistent with the in vivo findings (FIG. 27), the inhibitory activity of Gadd45β was specific. […] Indeed, the effects of Gadd45β on MKK7 phosphorylation by TNFα may be due inhibition of the MKK7 ability to auto-phoshorylate and/or to serve as substrate for upstream kinases. Altogether, the findings identify MKK7 as a target of Gadd45β, and of NF-[…]B, in the JNK cascade. Of interest, MKK7 is a selective activator of JNK, and its ablation abolishes JNK activation by TNFα. Thus, blockade of MKK7 is sufficient on its own to explain the effects of Gadd45β on JNK signaling—i.e. its specific and near-complete suppression of this signaling. […]

Another series deals with T2, MKK3b (Homo sapiens, UniProt P46734).
T2 construct: expressed in transfected cells; host or cells: HEK-293; anti-FLAG immunoprecipitate
T2 sequence (P46734 1-347): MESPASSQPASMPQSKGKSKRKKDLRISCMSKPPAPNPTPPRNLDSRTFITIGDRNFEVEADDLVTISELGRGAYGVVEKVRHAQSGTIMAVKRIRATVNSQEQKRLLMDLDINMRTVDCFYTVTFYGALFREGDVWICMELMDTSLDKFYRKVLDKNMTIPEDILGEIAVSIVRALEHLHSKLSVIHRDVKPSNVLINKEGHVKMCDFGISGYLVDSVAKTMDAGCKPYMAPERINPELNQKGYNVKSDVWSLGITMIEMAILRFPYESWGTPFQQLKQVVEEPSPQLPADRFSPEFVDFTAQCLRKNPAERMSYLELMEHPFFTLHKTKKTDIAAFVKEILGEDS
Nature of the series: Kinase assay of immunoprecipitated FLAG-MKK3b with recombinant Gadd45β proteins. The class given is biochemical. Conditions: in vitro, even at high concentrations. The procedure:
as §1, §2

B1: GST-Gadd45β: full-length murine Gadd45β directly fused to GST, purified from E. coli (protein)
chain: MTLEELVASDNAVQKMQAVTAAVEQLLVAAQRQDRLTVGVYEAAKLMNVDPDSVVLCLLAIDEEEEDDIALQIHFTLIQSFCCDNDIDIVRVSGMQRLAQLLGEPAETLGTTEARDLHCLLVTNCHTDSWKSQGLVEVASYCEESRGNNQWVPYISLEER
modifications: left off: a dimerising Fc or GST
notes: full-length murine Gadd45β directly fused to GST, purified from E. coli
B1: in the series with JNKK1/MKK4, the “effect on JNKK1/MKK4 kinase activity” value is given as “neither GST-Gadd45β nor His6-Gadd45β (His6 disclosed as SEQ ID NO: 46) had significant effects”. For the same molecule, the “effect on MKK3/MKK3b kinase activity” value with MKK3b is recorded as “neither GST-Gadd45β nor His6-Gadd45β (His6 disclosed as SEQ ID NO: 46) had significant effects”.

B2: Gadd45β: purified recombinant His6-tagged Gadd45β protein; also used generically for the recombinant Gadd45β proteins (protein, UniProt O75293 1-160, looked up)
Growth arrest and DNA …: MTLEELVACDNAAQKMQTVTAAVEELLVAAQRQDRLTVGVYESAKLMNVDPDSVVLCLLAIDEEEEDDIALQIHFTLIQSFCCDNDINIVRVSGMQRLAQLLGEPAETQGTTEARDLHCLLVTNPHTDAWKSHGLVEVASYCEESRGNNQWVPYISLQER
modifications: His6 tag
notes: purified recombinant His6-tagged Gadd45β protein; also used generically for the recombinant Gadd45β proteins
On to B2, for which, in the series with JNKK1/MKK4, the “effect on JNKK1/MKK4 kinase activity” value is on record as “did not hamper”. In the series with MKK3b, the “effect on MKK3/MKK3b kinase activity” value is on record as “did not hamper”.

B3: His6-Gadd45β: human full-length Gadd45β purified from E. coli as His6-tagged protein (protein, UniProt O75293 1-160, looked up)
chain: MTLEELVACDNAAQKMQTVTAAVEELLVAAQRQDRLTVGVYESAKLMNVDPDSVVLCLLAIDEEEEDDIALQIHFTLIQSFCCDNDINIVRVSGMQRLAQLLGEPAETQGTTEARDLHCLLVTNPHTDAWKSHGLVEVASYCEESRGNNQWVPYISLQER
modifications: full-length His6 tag
notes: human full-length Gadd45β purified from E. coli as His6-tagged protein
As to B3, the “effect on JNKK1/MKK4 kinase activity” value with JNKK1/MKK4 is “neither GST-Gadd45β nor His6-Gadd45β (His6 disclosed as SEQ ID NO: 46) had significant effects”. Also, in the series with MKK3b, the “effect on MKK3/MKK3b kinase activity” value is given as “neither GST-Gadd45β nor His6-Gadd45β (His6 disclosed as SEQ ID NO: 46) had significant effects”.
